In patent US20120178116A1, “POLYPEPTIDES FOR IDENTIFYING FUNGICIDALLY ACTIVE COMPOUNDS” (priority 2011, published 2012):

Experiments:
[1] = target: complex of SEQ ID NO: 12 and SEQ ID NO: 16 (MBP-AK / MBP-AKA) (Ustilago maydis, UniProt A0A0D1E894); assay: IMAP fluorescence polarization assay, inhibitor measurement of aurora kinase activity; assay type: biochemical, U. maydis
Procedure: Assay 3: For the commercially available IMAP Assay (Molecular Devices), 2 substrates for human aurora kinases (Kemptide, Cat #R7331, sequence 5TAMRA-LRRASLG-OH and PKAtide, Cat #R7250, Lot #130188, sequence 5FAM-GRTGRRNSI-NH2) may be purchased commercially. The assay was carried out in accordance with the instructions of the manufacturer.
The IMAP fluorescence polarization assay (Molecular Devices) is based on the specific high-affinity interaction between phosphate groups and trivalent metal ions. The kinase reaction phospholrylates a fluorescent substrate which is then specifically bonded by the metal beads present in the stop solution. This interaction increases the fluorescence polarization, which allows kinase activity to be determined. The assay was carried out in accordance with the instructions of the manufacturer as follows:
1 Vol. of inhibitor in 4% DMSO or 4% DMSO
1 Vol. of enzyme solution
Enzyme solution: for example SEQ ID NO: 12 and SEQ ID NO: 16 (1:1) in Complete Reaction Buffer ATP/substrate: 70 μM ATP/200 nM FAM-PKAtide or TAMRA-Kemptide in Complete Reaction Buffer
Fluorescence polarization was measured in a Tecan Ultra microtitre plate fluorimeter using the following measurement parameters:
Unless indicated otherwise, the activity of the AK was determined by the IMAP method as described under General Methods. […]

[2] = test system: SEQ ID NO: 16 (MBP-AKA fusion protein; C terminus of aurora kinase activator um03367 of U. maydis with TAG)

Chain of complex of SEQ ID NO: 12 and SEQ ID NO: 16 (MBP-AK / MBP-AKA) (A0A0D1E894 entry or part of it, one chain of several): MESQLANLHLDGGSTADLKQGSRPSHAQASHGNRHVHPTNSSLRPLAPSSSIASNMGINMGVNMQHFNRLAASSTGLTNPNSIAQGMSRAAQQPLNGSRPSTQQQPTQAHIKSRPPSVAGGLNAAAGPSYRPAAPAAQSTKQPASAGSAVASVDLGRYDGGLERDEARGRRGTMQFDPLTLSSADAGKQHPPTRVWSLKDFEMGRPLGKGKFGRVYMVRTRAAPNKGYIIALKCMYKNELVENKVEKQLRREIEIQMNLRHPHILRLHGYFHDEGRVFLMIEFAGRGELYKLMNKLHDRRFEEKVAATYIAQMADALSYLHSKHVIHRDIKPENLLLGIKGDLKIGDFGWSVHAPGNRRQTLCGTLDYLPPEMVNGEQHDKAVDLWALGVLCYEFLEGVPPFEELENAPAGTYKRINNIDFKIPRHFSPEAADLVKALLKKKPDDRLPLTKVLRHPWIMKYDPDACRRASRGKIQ

Row | Compound | IC50 [1] [nM] | AK activity, radioactive assay (phosphorylation of basic myelin protein) [2] | phosphorylation of basic myelin protein, PKAtide and Kemptide (IMAP fluorescence polarization assays) [2] | phosphorylation of substrates for human aurora kinase A (IMAP assay) [2]
1 | CN[C@@H]1C[C@H]2O[C@@](C)([C@@H]1OC)n1c3ccccc3c3c4c(c5c6ccccc6n2c5c31)C(=O)NC4 [staurosporine] | 2.1 | – | – | –
2 | SEQ ID NO: 12 (MBP-AK fusion protein; aurora kinase um10119 of U. maydis with TAG) | – | SEQ ID NO: 12 in the presence of SEQ ID NO: 16 shows AK activity | The purified complex of MBP-SEQ ID NO: 12 and MBP-SEQ ID NO: 16 was capable of phosphorylating both basic myelin protein and the substrates for human aurora kinases, PKAtide and Kemptide | Both substrates for human aurora kinase A were phosphorylated by SEQ ID NO: 12 in the presence of SEQ ID NO: 16
